Read-outs that look alike come from different tables or passages of the source. Blank lines part the entries; values can stand above or below the molecule they belong to.
Columns and labels:
[1] = test system: HIV; details: greater activity; cited from earlier work
[2] = test system: Neutrokine-alpha expression in monocytes and macrophages; assay: cytokine effect on Neutrokine-alpha expression and release in monocytes and macrophages; format: cell-based; details: single cytokine, in vitro
[3] = test system: Neutrokine-alpha expression on monocytes; assay: FACS of Neutrokine-alpha cell surface expression with mAb 2E5; format: cell-based, human; details: IFN-gamma 100 U/mL for three days
Protocol: The expression profile of Neutrokine-alpha was assessed by Northern blot (FIG. 7B) and flow cytometric analyses (Table V and FIGS. 8A, 8B and 8C). Neutrokine-alpha is encoded by a single 2.6 kb mRNA found at high levels in peripheral blood leukocytes, spleen, lymph node and bone marrow. Lower expression levels were detected in placenta, heart, lung, fetal liver, thymus and pancreas. Among a panel of cell lines, Neutrokine-alpha mRNA was detected in HL-60 and […], but not in Raji, HeLa, or MOLT-4 cells. […] A concomitant increase in Neutrokine-alpha-specific mRNA was also detected (FIG. 8C). By contrast, Neutrokine-alpha was not expressed on freshly isolated peripheral blood granulocytes, T cells, B cells, or NK cells.
(§1) FACS analysis. Neutrokine-alpha expression was assessed on human cell lines, freshly isolated normal peripheral blood nucleated cells, and in vitro cultured monocytes, a mouse anti-human Neutrokine-alpha mAb 2E5 (IgG1) followed by PE-conjugated F(ab′)2 goat antibody to mouse IgG (CALTAG Laboratories, Burlingame, Calif.). Cells were analyzed using a FACScan (Becton Dickinson Immunocytometry Systems, San Jose, Calif.) with propidium iodide to exclude dead cells. Neutrokine-alpha binding was assessed using rNeutrokine-alpha biotinylated with a N-hydroxysuccinimidobiotin reagent (Pierce, Rockford, Ill.) followed by PE-conjugated streptavidin (Dako Corp, Glostrup, Denmark).

[4] = biological target: T1, Neutrokine-alpha protein (Homo sapiens, UniProt Q9Y275)
Protocol: A Phase 2, multi-center, randomized, double-blind, placebo-controlled study was performed in subjects with RA. Subjects were randomized into 4 treatment groups (placebo, 1 mg/kg, 4 mg/kg and 10 mg/kg).
An ACR20 response is defined as at least a 20% reduction in tender joint count and swollen joint count, in addition to an improvement of at least 20% on three of five other assessments of symptoms or disease manifestations (i.e., patient pain assessment, patient global assessment, physician global assessment, patient self-assessed disability, acute-phase reactant [ESR or CRP]).

[5] = biological target: T1, Neutrokine-alpha protein; remark: listed apart in the source
Protocol: 449 subjects with SLE by ACR criteria (Tan et al., Arthritis Rheum. 25:1271-7, (1982); and Hochberg et al., Arthritis Rheum. 40:1725, (1997)) and SELENA SLEDAI score ≧4 at screening were dosed.

[6] = test system: human tonsillar B cells; assay: B lymphocyte co-stimulatory proliferation assay (3H-thymidine); format: cell-based; details: after biotinylation
Protocol: Purified recombinant Neutrokine-alpha (“rNeutrokine-alpha”) was assessed for its ability to induce activation, proliferation, differentiation or death in numerous cell based assays involving B cells, T cells, monocytes, NK cells, hematopoietic progenitors, and a variety of cell types of endothelial and epithelial origin. […] A dose-dependent response is readily observed as the amount of crosslinking agent increases in the presence of a fixed concentration of either 1L2 or rNeutrokine-alpha.
B lymphocyte proliferation assay. […] The resulting cell population was routinely greater than 95% B cells as assessed by expression of CD19 and CD20. […] Proliferation was quantitated by a 20 h pulse (1 microCi/well) of ^3H-thymidine (6.7 Ci/mM) beginning 72 h post factor addition.
In Vitro assay—Purified Neutrokine-alpha and/or Neutrokine-alphaSV protein, or truncated forms thereof, is assessed for its ability to induce activation, proliferation, differentiation or inhibition and/or death in B-cell populations and their precursors. […] Novel synergizing agents can be readily identified using this assay. […] The resulting cell population is greater than 95% B cells as assessed by expression of CD45R(B220). […] Proliferation or inhibition is quantitated by a 20 h pulse (1 uCi/well) with ^3H-thymidine (6.7 Ci/mM) beginning 72 h post factor addition. […]

[7] = test system: Neutrokine-alpha receptor; assay: FACS binding of biotinylated Neutrokine-alpha to blood cells and cell lines; parameters: species or system human
From the text: In an attempt to correlate the specific biological activity on B cells with receptor expression, purified Neutrokine-alpha was biotinylated. […] In contrast, biotinylated Neutrokine-alpha bound peripheral CD20^+ B cells. Receptor expression was also detected on the B cell tumor lines REH, ARH-77, Raji, Namalwa, RPMI 8226, and IM-9 but not any of the myeloid-derived lines tested including THP-1, HL-60, K-562, and U-937. Similar results were also obtained using a biologically active FLAG-tagged Neutrokine-alpha protein instead of the chemically modified biotin-Neutrokine-alpha. […] It remains to be shown whether cellular activation may induce expression of Neutrokine-alpha receptors on peripheral blood cells, other normal cell types or established cell lines.
as §1

[8] = parameters: species or system BALB/c mice; details: mouse
Protocol: Neutrokine-alpha was radiolabeled with ^125I and injected intravenously into BALB/c mice. Three doses and 4 timepoints over a 24-hr period were studied. Biodistribution was measured by direct counting of the radioactivity in dissected whole organs or tissues and by whole body quantitative autoradiography (QAR).

[9] = test system: B cells; assay: Neutrokine-alpha mediated B cell proliferation, enhancement by cytokines; format: cell-based; details: observed by the inventors
[10] = week 52, all treatment groups combined, reduction

Molecule: Nc1nc(=O)n([C@@H]2CS[C@H](CO)O2)cc1F [COVIRACIL, emtricitabine]
activity in vitro relative to lamivudine (3TC) [1]: 3- to 10 fold

Molecule: CC[C@H]1C(=O)Nc2ccc(F)cc2N1C(=O)OC(C)C [GW-420867X]
activity relative to HBY097 [1]: 25 fold

Molecule: C[C@H](Sc1nc(N)cc(Cl)n1)c1cc2ccoc2cn1 [PNU-142721]
activity relative to delavirdine [1]: 20- to 50 fold

Molecule: IFN-gamma: cytokine
cell surface expression of Neutrokine-alpha in monocytes and macrophages [2]: enhance
upregulation of Neutrokine-alpha expression on resting monocytes [3]: approximately 4 fold

ACR20 response versus placebo ([4]; 1 mg/kg treatment group, 24 weeks (p=0.0097)): statistically superior
ACR20 response ([4]; Week 48, extension period): approximately 40%
ACR20 response versus placebo ([4]; all active treatment groups combined, 24 weeks (p=0.0213)): statistically superior
CD20+ B-cells, naïve B-cells, activated B-cells and RF ([4]; biological activity): statistically significant reductions
decrease of serum IgG ([5]; belimumab-treated arms): 10%
PGA ([5]; by week 16 through week 52, all active vs. placebo): improved
plasma and memory cell populations ([5]; in vivo): preserved
primary efficacy endpoints (percent reduction in SS score at week 24, time to flare over 52 weeks) ([5]; in vivo): did not reach statistical significance
increase of C4 ([5]; low baseline C4, belimumab-treated arms): 33%
anti-dsDNA+ subjects converted to negative ([5]; week 52): 14.5%
SS score ([5]; week 52, ANA+ subjects): significantly reduced
median percent change in CD20+ B cells [5, 10]: 54%
median percent change in plasmacytoid B cells (CD20+/CD138+) [5, 10]: 62%
reduction of anti-dsDNA Ab ([5]; week 52, baseline positive): 30%
median percent change in activated B-cells (CD20+/CD69+ B cells) ([5]; week 52, reduction): 70%
SLE flares ([5]; weeks 24-52 using a 24 week baseline): decreased
Molecule: belimumab: an antibody that neutralizes Neutrokine-alpha protein
safety, including adverse events, AE severity, infections or lab toxicity vs. placebo ([5]; in vivo): No clinically significant differences
severe infusion reaction events ([5]; in vivo): 1
subjects with pleurisy ([5]; in vivo): 3.3%

Molecule: biotinylated Neutrokine-alpha: purified Neutrokine-alpha biotinylated with N-hydroxysuccinimidobiotin reagent
biological function in the standard B cell proliferation assays [6]: retained biological function
receptor expression (binding of biotinylated Neutrokine-alpha) ([7]; B cell tumor lines REH, ARH-77, Raji, Namalwa, RPMI 8226, IM-9): detected
binding of biotinylated Neutrokine-alpha ([7]; T cells, monocytes, NK cells and granulocytes of human peripheral blood): undetectable
receptor expression (binding of biotinylated Neutrokine-alpha) ([7]; myeloid-derived lines THP-1, HL-60, K-562, U-937): not any
binding of biotinylated Neutrokine-alpha ([7]; peripheral CD20+ B cells): bound

Molecule: radiolabeled Neutrokine-alpha: Neutrokine-alpha (amino acids 134-285 of SEQ ID NO:2) radiolabeled with 125I
in vivo targeting specificity [8]: high in vivo targeting specificity for lymphoid tissues
QAR signal in liver and kidney ([8]; in vivo): no longer had observable levels
QAR signal in spleen, lymph nodes and GALT ([8]; in vivo): still strongly positive
concentration of radioactivity in kidney ([8]; in vivo, iv, 0.01 mg/kg, 3 h): ~5 % injected dose (ID)/g
concentration of radioactivity in liver ([8]; in vivo, iv, 0.01 mg/kg, 3 h): ~5 % injected dose (ID)/g
concentration of radioactivity in lymph node ([8]; in vivo, iv, 0.01 mg/kg, 3 h): 23 % injected dose (ID)/g
concentration of radioactivity in spleen ([8]; in vivo, iv, 0.01 mg/kg, 3 h): 63 % injected dose (ID)/g

B1: IL-10: cytokine (protein, UniProt P22301 19-178, looked up)
Interleukin-10: SPGQGTQSENSCTHFPGNLPNMLRDLRDAFSRVKTFFQMKDQLDNLLLKESLLEDFKGYLGCQALSEMIQFYLEEVMPQAENQDPDIKAHVNSLGENLKTLRLRLRRCHRFLPCENKSKAVEQVKNAFNKLQEKGIYKAMSEFDIFINYIEAYMTMKIRN
cell surface expression of Neutrokine-alpha in monocytes and macrophages [2]: enhance
effect on Neutrokine-alpha mediated B cell proliferation [9]: enhance

B2: IL-4: cytokine (protein, UniProt P05112 25-153, looked up)
Interleukin-4: HKCDITLQEIIKTLNSLTEQKTLCTELTVTDIFAASKNTTEKETFCRAATVLRQFYSHHEKDTRCLGATAQQFHRHKQLIRFLKRLDRNLWGLAGLNSCPVKEANQSTLENFLERLKTIMREKYSKCSS
cell surface expression of Neutrokine-alpha in monocytes and macrophages [2]: decreased
effect on Neutrokine-alpha mediated B cell proliferation [9]: enhance

Source: patent US8211649B2, “Methods of diagnosing and prognosing hodgkin's lymphoma” (Human Genome Sciences, Inc., priority 2006, dated 2012)
